# Read-outs that look alike come from different tables or passages of the source.
# Assays:
# [1] = target: recombinant human IL-3 (human) (UniProt P08700); assay: cell-based or functional assay
# [2] = target: recombinant human GM-CSF (human) (UniProt P04141); assay: ELISA, GM-CSF coated on the plate, anti-human kappa light chain-HRP, OD 450 nm
# rhesus GM-CSF (rhesus) = rhesus GM-CSF (rhesus) (UniProt Q9GL44); assay: as above
# [3] = target: recombinant human GM-CSF (human) (UniProt P04141); assay: SPR Biacore 3000, antibody captured by goat anti-human IgG, rhGM-CSF injected
# [4] = target: recombinant human GM-CSF (human) (UniProt P04141); assay: cell-based or functional assay
# recombinant human GM-CSF [5] = target: T1, recombinant human GM-CSF (human, UniProt P04141 18-144); assay: ELISA on coated rhGM-CSF, UBA relative to 1D2
# T1 construct: also called rhGM-CSF; CSF2
# In short: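 Antibody clones carrying SDR point mutants in VH or VL, each paired with the wild-type chain, were expressed in HEK293 cells. Culture media diluted 1:12000 were bound to plates coated with rhGM-CSF at 1 μg/mL for 1 h at room temperature. Detection used HRP anti-human antibody and Amplex Red fluorescence (Ex530/Em590), with UBA = fluorescence signal/dilution factor.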
# recombinant human GM-CSF [6] = target: T1, recombinant human GM-CSF; assay: Biacore
# recombinant human GM-CSF [7] = target: T1, recombinant human GM-CSF; assay: cell-based or functional assay
# recombinant human GM-CSF [8] = target: T1, recombinant human GM-CSF; assay: Gator, Coating Ab
# recombinant human GM-CSF [9] = target: T1, recombinant human GM-CSF; assay: Gator (pro), Coating Ag
# recombinant human GM-CSF [10] = target: T1, recombinant human GM-CSF; assay: Gator, Coating Ag
# recombinant human GM-CSF [11] = target: T1, recombinant human GM-CSF; assay: Biacore; remark: listed apart in the source
# recombinant human GM-CSF [12] = target: T1, recombinant human GM-CSF; assay: cell-based or functional assay; remark: listed apart in the source
# rhesus GM-CSF = rhesus GM-CSF (rhesus, UniProt Q9GL44 18-144); assay: ELISA, rhesus GM-CSF coated on the plate, anti-human kappa light chain-HRP, OD 450 nm
# Description: (§1) Human and mouse GM-CSF have about 56% homology and are species specific. Rhesus and GM-CSF has 96.5% homologous to human GM-CSF (Hutchinson et al, J Med Virol 2001, 65:561-565, Genbank accession number AY007376). […] ELISA was performed as followed. Briefly, GM-CSF proteins were coated on the ELISA absorbing plates, then blocked by 1% BSA in PBS. […] After incubation, the plates were washed three times with TBST and incubated with anti-human kappa light chain conjugated HRP secondary antibodies. Plates were washed three times, TMB peroxidase substrate was added and reactions were stopped by adding 1 N sulfuric acid.
# recombinant human GM-CSF [13] = target: T1, recombinant human GM-CSF; assay: Biacore; remark: listed apart in the source
# recombinant human GM-CSF [14] = target: T1, recombinant human GM-CSF; assay: ELISA, human GM-CSF coated on the plate, anti-human kappa light chain-HRP, OD 450 nm
# Description: as §1
# T1 sequence (P04141 18-144 limits assumed): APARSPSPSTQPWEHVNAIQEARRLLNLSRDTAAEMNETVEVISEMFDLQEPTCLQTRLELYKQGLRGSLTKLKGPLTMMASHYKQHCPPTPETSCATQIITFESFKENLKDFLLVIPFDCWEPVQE
# Chain of recombinant human GM-CSF (human) (P04141 18-144 limits assumed): as above
# Chain of rhesus GM-CSF (Q9GL44 entry or part of it limits assumed): as the sequence (P04141 18-144 limits assumed) above, with S9G, E38K, I43V, T53S, R67Q, E104Q counted along it
# Chain of recombinant human IL-3 (human) (P08700 20-152 limits assumed): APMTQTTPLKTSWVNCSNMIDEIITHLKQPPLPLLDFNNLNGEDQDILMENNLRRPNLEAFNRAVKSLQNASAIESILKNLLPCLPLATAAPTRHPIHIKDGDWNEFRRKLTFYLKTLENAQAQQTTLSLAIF
# Chain of rhesus GM-CSF (rhesus) (Q9GL44 entry or part of it limits assumed): as the sequence (P04141 18-144 limits assumed) above, with S9G, E38K, I43V, T53S, R67Q, E104Q counted along it
Molecule,Ka (recombinant human GM-CSF [6]),Kd (recombinant human GM-CSF [6]),koff (recombinant human GM-CSF [6]),kon (recombinant human GM-CSF [6]),"IC50 (M), inhibition of GM-CSF induced TF-1 cell proliferation (FIG. 5B) (recombinant human GM-CSF [7])",Kd (recombinant human GM-CSF [8]),Kd (recombinant human GM-CSF [9]),Kd (recombinant human GM-CSF [10]),Kd (recombinant human GM-CSF [11]),also measured
MOR103 (otilimab) (antibody),,,,,,,,,,"Mean Fluorescence Intensity of phospho-STAT5 (pY694) in human PBMCs stimulated with 10 ng/mL rhIL-3, 2 ug/mL antibody (no antibody: 102) [1]: 106 MFI"
"AMG203 (namilumab) (antibody, INN chains, looked up, human IgG1, V domains shown, IgG1 kappa) VH: QVQLVQSGAEVKKPGASVKVSCKAFGYPFTDYLLHWVRQAPGQGLEWVGWLNPYSGDTNYAQKFQGRVTMTRDTSISTAYMELSRLRSDDTAVYYCTRTTLISVYFDYWGQGTMVTVSS VL: DIQMTQSPSSVSASVGDRVTIACRASQNIRNILNWYQQRPGKAPQLLIYAASNLQSGVPSRFSGSGSGTDFTLTINSLQPEDFATYYCQQSYSMPRTFGGGTKLEIK",,,,,,,,,,"EC50 (read off the curve) [2]: 0.05 nM; EC50 (read off the curve) (rhesus GM-CSF (rhesus)): 0.05 nM; Kd [3]: 0.62 nM; koff [3]: 4.77e-05 s⁻¹; kon [3]: 296000 M⁻¹ s⁻¹; Mean Fluorescence Intensity of phospho-STAT5 (pY694) in human PBMCs stimulated with 10 ng/mL rhGM-CSF, 2 ug/mL antibody (no antibody: 122.0) [4]: 42.6 MFI; Mean Fluorescence Intensity of phospho-STAT5 (pY694) in human PBMCs stimulated with 10 ng/mL rhIL-3, 2 ug/mL antibody (no antibody: 102) [1]: 104 MFI"
"1D2 SDR mutant HY103N (antibody, IgG1, V domains shown, also called X6 N) VH: QVQLVQSGAEVKKPGASVKVSCEASGYTFTDKYLHWVRQAPGQGLEWMAWINPKSGGTFYAQNFKGRVTVTRDTSINTAYLELTSLRLDDTSTYYCARGRDYNDQGAADLWGQGTMVTVSS VL: DIQLTQSPSSLSASVGDRVTITCRASQGINSVLAWYQQKPGKAPKLLLYAASKLESGVPSRFSGSGSGTDYTLTISSLQPEDFGTYYCQQYYSPVRTFGQGTKVEIKR",2.5e+09 M⁻¹,0.4 nM,0.000669 s⁻¹,1.67e+06 M⁻¹ s⁻¹,3.6e-09 M,,,,,"binding affinity % of 1D2 (recombinant human GM-CSF [5]): 130%; IC50 (M), inhibition of GM-CSF induced TF-1 cell proliferation (FIG. 5A) (recombinant human GM-CSF [7]): 3.41e-09 M"
"1D2 SDR mutant Y103N/V32R (antibody, IgG1, V domains shown) VH: QVQLVQSGAEVKKPGASVKVSCEASGYTFTDKYLHWVRQAPGQGLEWMAWINPKSGGTFYAQNFKGRVTVTRDTSINTAYLELTSLRLDDTSTYYCARGRDYNDQGAADLWGQGTMVTVSS VL: DIQLTQSPSSLSASVGDRVTITCRASQGINSRLAWYQQKPGKAPKLLLYAASKLESGVPSRFSGSGSGTDYTLTISSLQPEDFGTYYCQQYYSPVRTFGQGTKVEIKR",2.37e+08 M⁻¹,4.22 nM,0.0027 s⁻¹,640000 M⁻¹ s⁻¹,~6.83e-09 M,1.44 nM,0.00584 nM,0.0201 nM,3.36 nM,
"1D2 SDR mutant HY103R (antibody, IgG1, V domains shown, also called X6 R) VH: QVQLVQSGAEVKKPGASVKVSCEASGYTFTDKYLHWVRQAPGQGLEWMAWINPKSGGTFYAQNFKGRVTVTRDTSINTAYLELTSLRLDDTSTYYCARGRDYRDQGAADLWGQGTMVTVSS VL: DIQLTQSPSSLSASVGDRVTITCRASQGINSVLAWYQQKPGKAPKLLLYAASKLESGVPSRFSGSGSGTDYTLTISSLQPEDFGTYYCQQYYSPVRTFGQGTKVEIKR",2.42e+09 M⁻¹,0.414 nM,0.00057 s⁻¹,1.38e+06 M⁻¹ s⁻¹,3.47e-09 M,,,,,binding affinity % of 1D2 (recombinant human GM-CSF [5]): 115%
"1D2 SDR mutant Y103R/V32R (antibody, IgG1, V domains shown) VH: QVQLVQSGAEVKKPGASVKVSCEASGYTFTDKYLHWVRQAPGQGLEWMAWINPKSGGTFYAQNFKGRVTVTRDTSINTAYLELTSLRLDDTSTYYCARGRDYRDQGAADLWGQGTMVTVSS VL: DIQLTQSPSSLSASVGDRVTITCRASQGINSRLAWYQQKPGKAPKLLLYAASKLESGVPSRFSGSGSGTDYTLTISSLQPEDFGTYYCQQYYSPVRTFGQGTKVEIKR",4.14e+08 M⁻¹,2.42 nM,0.00241 s⁻¹,998000 M⁻¹ s⁻¹,~8.19e-09 M,4.14 nM,0.0028 nM,0.0309 nM,7.76 nM,
"1D2 SDR mutant K54G/V32R (antibody, IgG1, V domains shown, also called 54G/32R) VH: QVQLVQSGAEVKKPGASVKVSCEASGYTFTDKYLHWVRQAPGQGLEWMAWINPGSGGTFYAQNFKGRVTVTRDTSINTAYLELTSLRLDDTSTYYCARGRDYYDQGAADLWGQGTMVTVSS VL: DIQLTQSPSSLSASVGDRVTITCRASQGINSRLAWYQQKPGKAPKLLLYAASKLESGVPSRFSGSGSGTDYTLTISSLQPEDFGTYYCQQYYSPVRTFGQGTKVEIKR",5.23e+08 M⁻¹,1.91 nM,0.00197 s⁻¹,1.03e+06 M⁻¹ s⁻¹,6.62e-09 M,0.929 nM,0.000746 nM,0.0222 nM,1.5 nM,
"1D2-D89E (ED) (antibody, IgG1, V domains shown, also called ID2-D89E (ED); ED mutant) VH: QVQLVQSGAEVKKPGASVKVSCEASGYTFTDKYLHWVRQAPGQGLEWMAWINPKSGGTFYAQNFKGRVTVTRDTSINTAYLELTSLRLEDTSTYYCARGRDYYDQGAADLWGQGTMVTVSS VL: DIQLTQSPSSLSASVGDRVTITCRASQGINSVLAWYQQKPGKAPKLLLYAASKLESGVPSRFSGSGSGTDYTLTISSLQPEDFGTYYCQQYYSPVRTFGQGTKVEIKR",,,,,,,,,,"IC50, inhibition of GM-CSF induced TF-1 cell proliferation (recombinant human GM-CSF [12]): 0.0971 nM; IC50, inhibition of rhGM-CSF induced CCL17 secretion from PBMCs (recombinant human GM-CSF [12]): 0.0543 nM; IC50, inhibition of rhGM-CSF induced IL-8 secretion in U937 cells (recombinant human GM-CSF [12]): 0.051 nM; EC50 (read off the curve) (rhesus GM-CSF): ~0.6 nM; Kd (recombinant human GM-CSF [13]): 0.0732 nM; koff (recombinant human GM-CSF [13]): 0.000188 s⁻¹; kon (recombinant human GM-CSF [13]): 2.58e+06 M⁻¹ s⁻¹; EC50 (read off the curve) (recombinant human GM-CSF [14]): ~0.5 nM"
"1D2-D90E (DE) (antibody, IgG1, V domains shown, also called ID2-D90E (DE); DE mutant) VH: QVQLVQSGAEVKKPGASVKVSCEASGYTFTDKYLHWVRQAPGQGLEWMAWINPKSGGTFYAQNFKGRVTVTRDTSINTAYLELTSLRLDETSTYYCARGRDYYDQGAADLWGQGTMVTVSS VL: DIQLTQSPSSLSASVGDRVTITCRASQGINSVLAWYQQKPGKAPKLLLYAASKLESGVPSRFSGSGSGTDYTLTISSLQPEDFGTYYCQQYYSPVRTFGQGTKVEIKR",,,,,,,,,,"IC50, inhibition of GM-CSF induced TF-1 cell proliferation (recombinant human GM-CSF [12]): 0.123 nM; IC50, inhibition of rhGM-CSF induced IL-8 secretion in U937 cells (recombinant human GM-CSF [12]): 0.054 nM; EC50 (read off the curve) (rhesus GM-CSF): ~0.6 nM; Kd (recombinant human GM-CSF [13]): 0.114 nM; koff (recombinant human GM-CSF [13]): 0.000198 s⁻¹; kon (recombinant human GM-CSF [13]): 1.74e+06 M⁻¹ s⁻¹; EC50 (read off the curve) (recombinant human GM-CSF [14]): ~0.5 nM"
